Target: GST-p65(1-306) (UniProt Q04206 1-306)
Assay: pull-down

Sequence of GST-p65(1-306) (Q04206 1-306): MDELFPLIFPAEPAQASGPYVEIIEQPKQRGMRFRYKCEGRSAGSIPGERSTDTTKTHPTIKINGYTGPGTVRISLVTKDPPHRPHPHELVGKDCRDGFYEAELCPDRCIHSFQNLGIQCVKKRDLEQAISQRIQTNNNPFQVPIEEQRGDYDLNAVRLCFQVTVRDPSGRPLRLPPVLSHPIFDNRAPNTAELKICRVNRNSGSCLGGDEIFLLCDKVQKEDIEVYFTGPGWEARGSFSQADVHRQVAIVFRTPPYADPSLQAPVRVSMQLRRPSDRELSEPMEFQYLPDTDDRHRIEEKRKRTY

## GGSSLSY [GGSSLSY peptide]
  binding result: binds
